Results: article PMC2063832

Test system: La protein (Homo sapiens)
Assay: immunoprecipitation

## EBER1 wild type
  binding signal (reference (wild type)): 1
